Data on 34 molecules can be found in patent publication US20250218531A1 (ABSCI, published 2025).

The term Kd denotes the concentration at which binding is half-saturated. Lower therefore signals tighter binding.

Numbering of substitutions follows the chain as printed. Where “and” joins values, the source holds several entries; their conditions need not be identical. Equal values may be shown once.

First the molecules themselves.
B1: Trastuzumab HCDR3 variant ARWARGAGYYWDY (Fab, V domains shown)
VH: EVQLVESGGGLVQPGGSLRLSCAASGFNIKDTYIHWVRQAPGKGLEWVARIYPTNGYTRYADSVKGRFTISADTSKNTAYLQMNSLRAEDTAVYYCARWARGAGYYWDYWGQGTLVTVSS
VL: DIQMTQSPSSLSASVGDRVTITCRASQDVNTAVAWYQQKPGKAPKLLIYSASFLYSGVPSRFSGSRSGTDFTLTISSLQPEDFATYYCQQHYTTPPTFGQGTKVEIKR
B2: Trastuzumab HCDR3 variant ARWEGYGSYEFAY (Fab, V domains shown)
VH: B1 VH with A100E, R101G, G102Y, A103G, G104S, Y106E, W107F, D108A
VL: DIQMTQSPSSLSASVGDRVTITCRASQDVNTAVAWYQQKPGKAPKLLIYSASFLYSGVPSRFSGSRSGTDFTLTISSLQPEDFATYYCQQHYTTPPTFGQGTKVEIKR
B3: Trastuzumab HCDR3 variant ARYGDGTYYFFAH (Fab, V domains shown)
VH: B1 VH with W99Y, A100G, R101D, A103T, G104Y, Y106F, W107F, D108A, Y109H
VL: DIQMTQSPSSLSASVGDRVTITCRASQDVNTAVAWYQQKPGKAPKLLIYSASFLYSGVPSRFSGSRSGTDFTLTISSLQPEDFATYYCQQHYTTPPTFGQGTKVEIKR
B4: Trastuzumab HCDR3 variant ARWEQASVGSFGY (Fab, V domains shown)
VH: B1 VH with A100E, R101Q, G102A, A103S, G104V, Y105G, Y106S, W107F, D108G
VL: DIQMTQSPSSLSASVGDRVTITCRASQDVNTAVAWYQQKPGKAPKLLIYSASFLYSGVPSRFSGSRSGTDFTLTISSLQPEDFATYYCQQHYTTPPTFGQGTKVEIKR
B5: Trastuzumab HCDR3 variant ARWGSEAFYWFDY (Fab, V domains shown)
VH: B1 VH with A100G, R101S, G102E, G104F, Y106W, W107F
VL: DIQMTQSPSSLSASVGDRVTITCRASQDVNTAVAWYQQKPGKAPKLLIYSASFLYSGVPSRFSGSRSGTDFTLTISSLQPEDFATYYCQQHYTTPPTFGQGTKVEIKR
B6: Trastuzumab HCDR3 variant ARYGGYGNYWFDT (Fab, V domains shown)
VH: B1 VH with W99Y, A100G, R101G, G102Y, A103G, G104N, Y106W, W107F, Y109T
VL: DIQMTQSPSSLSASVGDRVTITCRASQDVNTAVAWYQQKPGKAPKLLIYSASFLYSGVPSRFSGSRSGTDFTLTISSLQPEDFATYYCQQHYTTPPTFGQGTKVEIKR
B7: Trastuzumab HCDR3 variant ARWQGRSGYYMDY (Fab, V domains shown)
VH: B1 VH with A100Q, R101G, G102R, A103S, W107M
VL: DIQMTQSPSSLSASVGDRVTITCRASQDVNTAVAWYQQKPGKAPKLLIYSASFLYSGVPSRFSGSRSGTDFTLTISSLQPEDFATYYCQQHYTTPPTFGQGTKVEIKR
B8: Trastuzumab HCDR3 variant ARYGGLSYYSFDL (Fab, V domains shown)
VH: B1 VH with W99Y, A100G, R101G, G102L, A103S, G104Y, Y106S, W107F, Y109L
VL: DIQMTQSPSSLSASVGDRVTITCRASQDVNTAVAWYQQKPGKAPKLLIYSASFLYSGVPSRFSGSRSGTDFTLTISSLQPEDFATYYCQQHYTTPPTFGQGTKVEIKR
B9: Trastuzumab HCDR3 variant ARWPPYYWWAFDY (Fab, V domains shown)
VH: B1 VH with A100P, R101P, G102Y, A103Y, G104W, Y105W, Y106A, W107F
VL: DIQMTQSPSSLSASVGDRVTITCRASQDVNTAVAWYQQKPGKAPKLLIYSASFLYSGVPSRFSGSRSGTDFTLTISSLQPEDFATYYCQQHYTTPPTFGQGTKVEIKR
B10: Trastuzumab HCDR3 variant ARWYGLGSYGLTY (Fab, V domains shown)
VH: B1 VH with A100Y, R101G, G102L, A103G, G104S, Y106G, W107L, D108T
VL: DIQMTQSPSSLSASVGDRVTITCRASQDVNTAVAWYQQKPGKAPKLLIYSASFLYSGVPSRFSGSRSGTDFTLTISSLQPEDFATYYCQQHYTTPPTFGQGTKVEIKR
B11: Trastuzumab HCDR3 variant ARWERYGYYVLDV (Fab, V domains shown)
VH: B1 VH with A100E, G102Y, A103G, G104Y, Y106V, W107L, Y109V
VL: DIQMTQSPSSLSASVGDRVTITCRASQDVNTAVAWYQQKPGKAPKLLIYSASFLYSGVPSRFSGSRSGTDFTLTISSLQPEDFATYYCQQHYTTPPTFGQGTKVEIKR
B12: Trastuzumab HCDR3 variant ARYGDADFYAFDP (Fab, V domains shown)
VH: B1 VH with W99Y, A100G, R101D, G102A, A103D, G104F, Y106A, W107F, Y109P
VL: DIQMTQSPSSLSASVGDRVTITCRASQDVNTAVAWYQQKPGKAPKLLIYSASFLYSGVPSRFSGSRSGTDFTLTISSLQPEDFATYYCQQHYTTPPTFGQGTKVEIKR
B13: Trastuzumab HCDR3 variant ARYDYYGYYYFDY (Fab, V domains shown)
VH: B1 VH with W99Y, A100D, R101Y, G102Y, A103G, G104Y, W107F
VL: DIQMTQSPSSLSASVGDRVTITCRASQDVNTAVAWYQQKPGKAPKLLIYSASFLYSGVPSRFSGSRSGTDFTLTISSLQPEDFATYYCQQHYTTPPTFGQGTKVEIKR
B14: Trastuzumab HCDR3 variant ARWGYGYYYSFDY (Fab, V domains shown)
VH: B1 VH with A100G, R101Y, A103Y, G104Y, Y106S, W107F
VL: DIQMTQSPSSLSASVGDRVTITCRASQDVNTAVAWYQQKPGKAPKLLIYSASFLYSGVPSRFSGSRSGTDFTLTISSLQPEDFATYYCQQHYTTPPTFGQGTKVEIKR
B15: Trastuzumab HCDR3 variant ARWGSYGYYYFDY (Fab, V domains shown)
VH: B1 VH with A100G, R101S, G102Y, A103G, G104Y, W107F
VL: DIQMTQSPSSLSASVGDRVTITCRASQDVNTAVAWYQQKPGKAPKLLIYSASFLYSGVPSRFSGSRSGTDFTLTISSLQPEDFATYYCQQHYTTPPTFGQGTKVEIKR
B16: Trastuzumab HCDR3 variant ARYGLNHYYVYPY (Fab, V domains shown)
VH: B1 VH with W99Y, A100G, R101L, G102N, A103H, G104Y, Y106V, W107Y, D108P
VL: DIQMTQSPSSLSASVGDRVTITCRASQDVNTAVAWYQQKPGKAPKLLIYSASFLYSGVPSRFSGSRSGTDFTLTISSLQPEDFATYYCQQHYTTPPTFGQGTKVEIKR
B17: Trastuzumab HCDR3 variant ARYFYDHYYYFDV (Fab, V domains shown)
VH: B1 VH with W99Y, A100F, R101Y, G102D, A103H, G104Y, W107F, Y109V
VL: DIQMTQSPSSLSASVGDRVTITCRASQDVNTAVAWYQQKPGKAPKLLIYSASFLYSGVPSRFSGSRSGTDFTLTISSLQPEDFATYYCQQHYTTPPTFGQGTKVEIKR
B18: Trastuzumab HCDR3 variant ARWWYGGRNYFDI (Fab, V domains shown)
VH: B1 VH with A100W, R101Y, A103G, G104R, Y105N, W107F, Y109I
VL: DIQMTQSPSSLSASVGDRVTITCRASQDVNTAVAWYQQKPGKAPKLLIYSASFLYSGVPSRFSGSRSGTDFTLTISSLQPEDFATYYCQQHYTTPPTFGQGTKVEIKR
B19: Trastuzumab HCDR3 variant ARWVSGARYYMDV (Fab, V domains shown)
VH: B1 VH with A100V, R101S, G104R, W107M, Y109V
VL: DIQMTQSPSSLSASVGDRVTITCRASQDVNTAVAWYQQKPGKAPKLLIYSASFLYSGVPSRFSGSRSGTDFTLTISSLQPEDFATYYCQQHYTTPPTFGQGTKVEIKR
B20: Trastuzumab HCDR3 variant ARWGTYTYGYFDY (Fab, V domains shown)
VH: B1 VH with A100G, R101T, G102Y, A103T, G104Y, Y105G, W107F
VL: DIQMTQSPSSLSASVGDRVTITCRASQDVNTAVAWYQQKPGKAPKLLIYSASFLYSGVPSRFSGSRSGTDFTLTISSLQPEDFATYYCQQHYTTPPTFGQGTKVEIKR
B21: Trastuzumab HCDR3 variant ARYGGGYYYYFDV (Fab, V domains shown)
VH: B1 VH with W99Y, A100G, R101G, A103Y, G104Y, W107F, Y109V
VL: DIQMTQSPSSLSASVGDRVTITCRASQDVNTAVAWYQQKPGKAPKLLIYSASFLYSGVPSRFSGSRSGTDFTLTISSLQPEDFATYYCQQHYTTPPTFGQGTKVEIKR
B22: Trastuzumab HCDR3 variant ARYGGYGYYWFDY (Fab, V domains shown)
VH: B1 VH with W99Y, A100G, R101G, G102Y, A103G, G104Y, Y106W, W107F
VL: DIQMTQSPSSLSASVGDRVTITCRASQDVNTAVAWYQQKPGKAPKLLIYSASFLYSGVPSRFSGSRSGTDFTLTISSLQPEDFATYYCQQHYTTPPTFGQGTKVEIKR
B23: Trastuzumab HCDR3 variant ARWGGFGYYYFDY (Fab, V domains shown)
VH: B1 VH with A100G, R101G, G102F, A103G, G104Y, W107F
VL: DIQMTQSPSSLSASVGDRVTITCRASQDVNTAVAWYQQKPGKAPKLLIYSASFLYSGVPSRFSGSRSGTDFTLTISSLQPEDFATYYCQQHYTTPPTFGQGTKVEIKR
B24: Trastuzumab HCDR3 variant ARYGLYGSYYFRY (Fab, V domains shown)
VH: B1 VH with W99Y, A100G, R101L, G102Y, A103G, G104S, W107F, D108R
VL: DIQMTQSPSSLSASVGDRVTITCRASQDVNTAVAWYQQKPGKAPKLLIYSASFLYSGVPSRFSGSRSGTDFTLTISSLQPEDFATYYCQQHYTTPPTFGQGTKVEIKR
B25: Trastuzumab HCDR3 variant ARYGRNGSYSYDY (Fab, V domains shown)
VH: B1 VH with W99Y, A100G, G102N, A103G, G104S, Y106S, W107Y
VL: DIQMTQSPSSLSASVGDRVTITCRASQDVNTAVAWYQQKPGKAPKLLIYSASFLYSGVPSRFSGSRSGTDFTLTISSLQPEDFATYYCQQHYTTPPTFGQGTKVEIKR
B26: Trastuzumab HCDR3 variant ARYGARSGYAYEY (Fab, V domains shown)
VH: B1 VH with W99Y, A100G, R101A, G102R, A103S, Y106A, W107Y, D108E
VL: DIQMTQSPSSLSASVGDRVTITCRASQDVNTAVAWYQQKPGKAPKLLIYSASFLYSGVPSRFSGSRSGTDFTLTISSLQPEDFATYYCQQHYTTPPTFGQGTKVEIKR
B27: Trastuzumab HCDR3 variant ARYGGLGGYTLAY (Fab, V domains shown)
VH: B1 VH with W99Y, A100G, R101G, G102L, A103G, Y106T, W107L, D108A
VL: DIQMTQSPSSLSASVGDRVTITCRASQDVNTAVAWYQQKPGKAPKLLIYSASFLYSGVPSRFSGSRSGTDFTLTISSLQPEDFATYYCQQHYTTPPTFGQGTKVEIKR
B28: Trastuzumab HCDR3 variant ARYGAYSSYYFGY (Fab, V domains shown)
VH: B1 VH with W99Y, A100G, R101A, G102Y, A103S, G104S, W107F, D108G
VL: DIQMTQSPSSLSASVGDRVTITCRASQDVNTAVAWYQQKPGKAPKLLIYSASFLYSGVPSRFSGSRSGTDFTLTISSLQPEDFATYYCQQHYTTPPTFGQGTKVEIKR
B29: Trastuzumab HCDR3 variant ARYGDAFIMSFGV (Fab, V domains shown)
VH: EVQLVESGGGLVQPGGSLRLSCAASGFNIKDTYIHWVRQAPGKGLEWVARIYPTNGYTRYADSVKGRFTISADTSKNTAYLQMNSLRAEDTAVYYCARYGDAFIMSFGVWGQGTLVTVSS
VL: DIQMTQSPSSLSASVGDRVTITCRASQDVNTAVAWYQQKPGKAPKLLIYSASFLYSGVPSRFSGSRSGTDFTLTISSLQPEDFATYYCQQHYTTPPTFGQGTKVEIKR
B30: Trastuzumab HCDR3 variant ARWRYGGAYQFAL (Fab, V domains shown)
VH: B1 VH with A100R, R101Y, A103G, G104A, Y106Q, W107F, D108A, Y109L
VL: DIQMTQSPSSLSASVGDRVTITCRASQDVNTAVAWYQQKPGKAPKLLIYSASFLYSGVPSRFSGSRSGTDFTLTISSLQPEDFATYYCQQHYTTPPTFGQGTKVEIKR
B31: Trastuzumab HCDR3 variant ARWLRGLGYYWDY (Fab, V domains shown)
VH: B1 VH with A100L, A103L
VL: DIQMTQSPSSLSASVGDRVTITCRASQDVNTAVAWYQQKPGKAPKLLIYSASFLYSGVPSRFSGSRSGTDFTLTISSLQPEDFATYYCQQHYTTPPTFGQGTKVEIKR
B32: Trastuzumab HCDR3 variant ARWWTPANYPFLY (Fab, V domains shown)
VH: B1 VH with A100W, R101T, G102P, G104N, Y106P, W107F, D108L
VL: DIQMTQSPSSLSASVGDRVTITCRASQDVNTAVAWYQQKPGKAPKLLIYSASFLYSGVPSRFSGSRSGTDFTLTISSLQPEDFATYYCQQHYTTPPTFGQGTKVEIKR
B33: Trastuzumab HCDR3 variant ARYGPYYYYAMDY (Fab, V domains shown)
VH: B1 VH with W99Y, A100G, R101P, G102Y, A103Y, G104Y, Y106A, W107M
VL: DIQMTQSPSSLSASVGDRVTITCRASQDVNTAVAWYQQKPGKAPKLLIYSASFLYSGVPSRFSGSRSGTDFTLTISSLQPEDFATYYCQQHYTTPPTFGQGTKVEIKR
B34: Trastuzumab HCDR3 variant ARYGDSYYYYFDY (Fab, V domains shown)
VH: B1 VH with W99Y, A100G, R101D, G102S, A103Y, G104Y, W107F
VL: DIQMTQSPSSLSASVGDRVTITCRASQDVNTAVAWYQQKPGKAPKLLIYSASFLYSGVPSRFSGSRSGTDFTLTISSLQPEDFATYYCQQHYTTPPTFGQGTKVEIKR

This test addresses human epidermal growth factor receptor 2 (HER2) extracellular domain (human, UniProt P04626 23-629). Nature of the test: SPR. (Surface plasmon resonance follows binding to a sensor surface in real time, without labels.)
Take B1: the Kd turned out to be 89.6 nM and the “log(KD (M))” value is -7.05 log(M).
On to B2, for which the equilibrium dissociation constant (Kd) amounted to 42.5 nM and the “log(KD (M))” value was -7.37 log(M).
Take B3: binding was characterised by a dissociation constant (Kd) of 97.3 nM and the “log(KD (M))” value is -7.01 log(M).
With B4, binding was characterised by a dissociation constant (Kd) of 226 nM and the “log(KD (M))” value was -6.65 log(M).
Consider B5, for which the affinity, expressed as Kd, was 32.8 nM and the “log(KD (M))” value was -7.48 log(M).
On the same counts, the results for B6 are 42.1 nM and -7.38 log(M).
On the same counts, the results for B7 are 48.3 nM and -7.32 log(M).
On the same counts, the results for B8 are 58.1 nM and -7.24 log(M).
On to B9, for which the dissociation constant (Kd) amounted to 65.6 nM and the “log(KD (M))” value was -7.18 log(M).
On the same counts, the results for B10 are 223 nM and -6.65 log(M).
On the same counts, the results for B11 are 27.9 nM and -7.55 log(M).
Take B12: the affinity, expressed as Kd, was 35.8 nM and the “log(KD (M))” value was -7.45 log(M).
Turning to B13, the Kd was 99 nM and the “log(KD (M))” value is -7 log(M).
On the same counts, the results for B14 are 38 nM and -7.42 log(M).
On the same counts, the results for B15 are 30.9 nM and -7.51 log(M).
On the same counts, the results for B16 are 135 nM and -6.87 log(M).
For the molecule B17, the Kd was 29.7 nM and the “log(KD (M))” value was -7.53 log(M).
Consider B18, for which the affinity, expressed as Kd, was 116 nM and the “log(KD (M))” value was -6.94 log(M).
On the same counts, the results for B19 are 33.8 nM and -7.47 log(M).
In the case of B20, the Kd is 88.1 nM and the “log(KD (M))” value is -7.05 log(M).
With B21, the Kd came to 31.4 nM and the “log(KD (M))” value is -7.5 log(M).
On the same counts, the results for B22 are 40 nM and -7.4 log(M).
On the same counts, the results for B23 are 31 nM and -7.51 log(M).
On the same counts, the results for B24 are 71.8 nM and -7.14 log(M).
Take B25: the dissociation constant Kd is 38.2 nM and the “log(KD (M))” value is -7.42 log(M).
In the case of B26, the Kd was 45.1 nM and the “log(KD (M))” value was -7.35 log(M).
Consider B27, for which the dissociation constant Kd is 42.9 nM and the “log(KD (M))” value was -7.37 log(M).
With B28, binding was characterised by a dissociation constant (Kd) of 28 nM and the “log(KD (M))” value was -7.55 log(M).
On to B29, for which the equilibrium dissociation constant (Kd) came out at 67.4 nM and the “log(KD (M))” value is -7.17 log(M).
Regarding B30, binding was characterised by a dissociation constant (Kd) of 231 nM and the “log(KD (M))” value was -6.64 log(M).
On the same counts, the results for B31 are 40.1 nM and -7.4 log(M).
Consider B32, for which the Kd worked out at 133 nM and the “log(KD (M))” value is -6.88 log(M).
Regarding B33, the equilibrium dissociation constant (Kd) is 41.3 nM and 41.2 nM; the “log(KD (M))” value is -7.38 log(M).
For B34, the equilibrium dissociation constant (Kd) worked out at 40.6 nM and the “log(KD (M))” value was -7.39 log(M).
